Results from the supplement of paper PMC9732359.
± gives the uncertainty stated by the source.

Assay: protein stability index of a GFP-peptide fusion (yeast GPS) (PSI 1-4); higher = more stable; sorted into four equal gates, so the index is relative within each strain
Procedure, shortened: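 Yeast carrying a pooled library were grown to mid-log phase in leucine-free medium. Each library plasmid expresses Cherry and has a tiled 17-residue yeast protein peptide fused downstream of GFP. Cells were sorted into four equal gates by GFP/Cherry ratio, and plasmids from each gate were PCR-amplified, Illumina-sequenced and assigned to strains by barcode. Summing, across gates, the read frequency times the gate number gave each peptide's protein stability index.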

Sequence	protein stability index (doa10∆)	protein stability index (pdr5∆)	protein stability index (san1∆)	protein stability index (ubr1∆)
MEKDKLKNLLRSNFRVN [SNU114]	1.99 ± 0.087	2.45 ± 0.08	2.46 ± 0.13	2.65 ± 0.087
VRKETYSSYIYKVLKQT [HTB2]	3.08 ± 0.074	3.26 ± 0.065	3.24 ± 0.051	3.12 ± 0.038
TTIQTEKVRPTPGEVAS [MCD1]	2.74 ± 0.043	2.44 ± 0.041	2.8 ± 0.04	2.84 ± 0.034
DILSQILYGLVDKGAIM [YJL039C/NUP192]	2.87 ± 0.11	2.87 ± 0.25	2.95 ± 0.19	2.79 ± 0.28
PGHSLLLSIKLPGKVNT [SNF5]	2.37 ± 0.059	1.77 ± 0.039	2.08 ± 0.058	2.29 ± 0.04
MAGVKAYELRTKSKEQL [RPL35A]	3 ± 0.11	3.38 ± 0.1	2.94 ± 0.067	3.17 ± 0.13
QTIPIQIYGFEGLNQRN [YGR119C/NUP57]	2.64 ± 0.27		2.52 ± 0.16	3.08 ± 0.18
ESVIEQIVKYARKGLTP [RPS13]	3.13 ± 0.058	2.94 ± 0.073	2.76 ± 0.052	2.81 ± 0.044
TMQPPYIQERLKSLNDI [MED11]	2.89 ± 0.086	2.86 ± 0.12	3.13 ± 0.068	2.82 ± 0.056
KELDQELIIDPLFKKAL [BRN1]	3.23 ± 0.071	3.07 ± 0.073	3.13 ± 0.11	3.07 ± 0.052
FIPNKQLNCVIDRVNGI [RPN7]	2.47 ± 0.13	2.75 ± 0.21	2.73 ± 0.18	3.08 ± 0.18
KIPEREEKSNEVKTPKI [SIR4]		3.24 ± 0.21	3.46 ± 0.21	3.44 ± 0.15
SDKQRRLLAKDAMIAQR [DIS3]	2.29 ± 0.056	2.48 ± 0.049	2.36 ± 0.064	2.46 ± 0.049
PAGHAGNPTNISSPIVA [YDL088C/ASM4]	2.52 ± 0.068	2.71 ± 0.065	2.67 ± 0.064	3.02 ± 0.046
LYHHTTKTILSGTDGST [SRP72]	3.04 ± 0.068	2.82 ± 0.051	2.49 ± 0.088	2.83 ± 0.043
WKTAEEVSALVRSLPKE [PRP8]	1.21 ± 0.068	1.36 ± 0.079	1.28 ± 0.12	1.08 ± 0.051
TTFTKVAAKWNTSLISL [PRP8]	2.09 ± 0.052	2.39 ± 0.06	2.4 ± 0.082	2.06 ± 0.036
IKIEDFVDDMLRDYRFE [SNF5]	3 ± 0.068	3.16 ± 0.073	3.1 ± 0.067	2.97 ± 0.078

Sequence	protein stability index (doa10∆)	protein stability index (pdr5∆)	protein stability index (san1∆)	protein stability index (ubr1∆)
TGKYGVRYGSSLRRQVK [RPL43A]	3 ± 0.079	3.23 ± 0.066	3.42 ± 0.057	3.06 ± 0.046
CARFLGNRGFSIGINDV [RPO31]	2.32 ± 0.21			2.88 ± 0.21
TTGISSTGAADGGYNAQ [SMC2]	3.32 ± 0.13	3.4 ± 0.093	3.23 ± 0.069	3.17 ± 0.11
FEKVGSHLYKARLDGHD [RPN14]	2.92 ± 0.26	3.51 ± 0.19		3.31 ± 0.14
TSGTNIAGTFNVGKPDQ [YOR098C/NUP1]	3.22 ± 0.088	3.01 ± 0.11	3.27 ± 0.079	3.21 ± 0.1
FNTEAEQTVSAVTEATS [RGR1]	2.67 ± 0.28	3.41 ± 0.15		
FNNGDDDDYGDEEDPNE [RPC31]	3.25 ± 0.15	2.36 ± 0.17	2.98 ± 0.088	
RMRVSVLEKYEVIGYIA [SSN3]	1.4 ± 0.14	1.56 ± 0.2	1.09 ± 0.27	1.15 ± 0.049
LDCDGGFIDASCIAVMA [RRP45]	1.87 ± 0.047	1.56 ± 0.049	2.67 ± 0.071	1.56 ± 0.04
EDVVAISSRTFGQRAVL [RPS0A]	3.3 ± 0.11	3.03 ± 0.056	3.02 ± 0.085	3.1 ± 0.047
CKSLISENEDTKDLLSK [CSE2]	3.23 ± 0.098	3.21 ± 0.093	3.1 ± 0.066	3.22 ± 0.12
QLDSKLMVFNDDTKNQD [YGR119C/NUP57]	2.93 ± 0.062	2.75 ± 0.054	2.6 ± 0.057	2.91 ± 0.045
TTFTHCEIHPSMILGVA [RPB2]	1.75 ± 0.11	2.39 ± 0.075	1.3 ± 0.14	2.57 ± 0.098
RQINKLIDSLPGVDVSA [SRB7]	2.43 ± 0.056	2.06 ± 0.05	1.6 ± 0.077	1.9 ± 0.038
NTPLSLPTRGTLESLEN [COR1]	3.21 ± 0.12	2.37 ± 0.08	2.6 ± 0.27	2.41 ± 0.065
IRKLLEKINRMIIFLKN [CSI1]	1.81 ± 0.079	1.5 ± 0.063	1.31 ± 0.11	1.19 ± 0.041
SEDHSFRKIKLRVDEVQ [RPS1A]	3.1 ± 0.12	3.16 ± 0.11	3.1 ± 0.071	3.22 ± 0.071
YLVEAPWNDDYPFLLSF [YML103C/NUP188]	1.4 ± 0.048	1.69 ± 0.066	1.43 ± 0.097	1.61 ± 0.072
